Reference: ChEMBL document CHEMBL3352481, “Synthesis of {[5-(adenin-9-yl)-2-furyl]methoxy}methyl phosphonic acid and evaluations against human adenylate kinases” (Bioorg Med Chem Lett, 2014)

Experiments:
Settings in all cases: Homo sapiens; call rule not given here
[1] = substrate: C[C@H](Cn1cnc2c(N)ncnc21)OCP(=O)(O)O; assay: (§1) Ratio of Kcat to Km for recombinant AK1 (unknown origin)
[2] = substrate: Nc1ncnc2c1ncn2CCOCP(=O)(O)O; assay: as §1
[3] = substrate: Nc1ncnc2c1ncn2[C@H]1C[C@H](O)[C@@H](COP(=O)(O)O)O1; assay: as §1
[4] = substrate: Nc1ncnc2c1ncn2-c1ccc(COCP(=O)(O)O)o1; assay: as §1
[5] = substrate: Nc1ncnc2c1ncn2[C@@H]1O[C@H](COP(=O)(O)O)[C@@H](O)[C@H]1O; assay: as §1
[6] = substrate: Nc1ncnc2c1ncn2-c1ccc(CO)o1; assay: as §1
[7] = substrate: C[C@H](Cn1cnc2c(N)ncnc21)OCP(=O)(O)O; assay: (§2) Activity of recombinant AK1 (unknown origin) assessed as ADP formation by spectroscopic pyruvate kinase/lactate dehydrogenase coupled assay
[8] = substrate: Nc1ncnc2c1ncn2CCOCP(=O)(O)O; assay: as §2
[9] = substrate: Nc1ncnc2c1ncn2[C@H]1C[C@H](O)[C@@H](COP(=O)(O)O)O1; assay: as §2
[10] = substrate: Nc1ncnc2c1ncn2-c1ccc(COCP(=O)(O)O)o1; assay: as §2
[11] = substrate: Nc1ncnc2c1ncn2[C@@H]1O[C@H](COP(=O)(O)O)[C@@H](O)[C@H]1O; assay: as §2
[12] = substrate: Nc1ncnc2c1ncn2-c1ccc(CO)o1; assay: as §2

B1: Adenylate kinase isoenzyme 1 (Homo sapiens), P00568 (protein)
chain: MEEKLKKTKIIFVVGGPGSGKGTQCEKIVQKYGYTHLSTGDLLRSEVSSGSARGKKLSEIMEKGQLVPLETVLDMLRDAMVAKVNTSKGFLIDGYPREVQQGEEFERRIGQPTLLLYVDAGPETMTQRLLKRGETSGRVDDNEETIKKRLETYYKATEPVIAFYEKRGIVRKVNAEGSVDSVFSQVCTHLDALK
kcat/Km [1]: 75 M⁻¹ s⁻¹
kcat/Km [2]: 14 ×10⁶ /M/s
kcat/Km [3]: 0.16 ×10⁶ /M/s
kcat/Km [4]: Not Active
kcat/Km [5]: 2.85 ×10⁶ /M/s
kcat/Km [6]: Not Active
Km [7]: 3000 µM
kcat [7]: 0.22 s⁻¹
Km [8]: 6000 µM
kcat [8]: 0.08 s⁻¹
Km [9]: 1500 µM
kcat [9]: 240 s⁻¹
Km [10]: Not Active
kcat [10]: Not Active
Km [11]: 175 µM
kcat [11]: 500 s⁻¹
Km [12]: Not Active
kcat [12]: Not Active
